According to PMC10567836:

Target: CD45 on human peripheral blood mononuclear cells (human (endogenous in PBMC)) (UniProt P08575)
Chain of UniProt P08575 (P08575 26-1306): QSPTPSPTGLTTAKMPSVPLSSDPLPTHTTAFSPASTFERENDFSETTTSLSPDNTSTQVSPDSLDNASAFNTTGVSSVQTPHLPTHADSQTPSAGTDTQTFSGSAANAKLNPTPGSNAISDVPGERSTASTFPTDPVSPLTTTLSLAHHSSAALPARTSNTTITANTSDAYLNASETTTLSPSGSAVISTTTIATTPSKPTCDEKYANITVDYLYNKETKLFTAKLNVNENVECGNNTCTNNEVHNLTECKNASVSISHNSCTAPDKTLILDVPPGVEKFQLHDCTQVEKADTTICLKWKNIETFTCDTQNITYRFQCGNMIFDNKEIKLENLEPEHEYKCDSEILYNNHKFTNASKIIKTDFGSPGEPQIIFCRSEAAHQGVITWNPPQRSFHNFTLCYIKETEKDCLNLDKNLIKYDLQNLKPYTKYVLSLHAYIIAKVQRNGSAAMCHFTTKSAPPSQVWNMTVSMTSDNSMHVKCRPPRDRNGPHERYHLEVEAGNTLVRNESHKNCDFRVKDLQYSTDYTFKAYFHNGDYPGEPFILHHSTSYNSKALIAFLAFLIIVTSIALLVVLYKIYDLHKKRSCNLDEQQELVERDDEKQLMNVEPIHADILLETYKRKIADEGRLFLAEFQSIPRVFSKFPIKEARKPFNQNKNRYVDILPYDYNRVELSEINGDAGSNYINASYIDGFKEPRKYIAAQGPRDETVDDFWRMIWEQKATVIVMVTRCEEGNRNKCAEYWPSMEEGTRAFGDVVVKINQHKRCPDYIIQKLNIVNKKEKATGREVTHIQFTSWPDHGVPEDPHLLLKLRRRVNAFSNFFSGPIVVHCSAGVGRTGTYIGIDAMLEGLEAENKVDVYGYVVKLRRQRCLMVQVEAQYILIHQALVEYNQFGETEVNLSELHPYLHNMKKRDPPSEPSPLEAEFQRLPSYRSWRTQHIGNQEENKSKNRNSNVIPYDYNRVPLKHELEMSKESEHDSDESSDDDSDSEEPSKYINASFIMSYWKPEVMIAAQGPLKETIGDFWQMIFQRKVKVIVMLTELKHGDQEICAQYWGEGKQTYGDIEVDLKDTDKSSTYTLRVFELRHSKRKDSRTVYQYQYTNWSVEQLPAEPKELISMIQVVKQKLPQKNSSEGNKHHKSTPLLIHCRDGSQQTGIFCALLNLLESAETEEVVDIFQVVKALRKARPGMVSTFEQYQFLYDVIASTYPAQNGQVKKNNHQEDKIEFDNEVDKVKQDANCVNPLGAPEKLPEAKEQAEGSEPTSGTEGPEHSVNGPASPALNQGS

HAdV-D64 (Ad19a) protein E3/49K expressed on porcine L23 cells (natural protein)
phosphorylated p56lck(p505) in CD4+ T cells of human PBMC stimulated for 48 h with L23-E3/49K cells (15–20% with L23-control or L23-UL11 cells), intracellular flow cytometry (% of CD4+ T cells): 40
